Paper PMC8968458

Target: NF-κB protein p65 (endogenous) (human (endogenous in PC-3)), Q04206
Experiment: immuno-depletion
Settings: remark: other sources report otherwise

Chain of NF-κB protein p65 (endogenous) (human (endogenous in PC-3)), Q04206 (Q04206 whole entry): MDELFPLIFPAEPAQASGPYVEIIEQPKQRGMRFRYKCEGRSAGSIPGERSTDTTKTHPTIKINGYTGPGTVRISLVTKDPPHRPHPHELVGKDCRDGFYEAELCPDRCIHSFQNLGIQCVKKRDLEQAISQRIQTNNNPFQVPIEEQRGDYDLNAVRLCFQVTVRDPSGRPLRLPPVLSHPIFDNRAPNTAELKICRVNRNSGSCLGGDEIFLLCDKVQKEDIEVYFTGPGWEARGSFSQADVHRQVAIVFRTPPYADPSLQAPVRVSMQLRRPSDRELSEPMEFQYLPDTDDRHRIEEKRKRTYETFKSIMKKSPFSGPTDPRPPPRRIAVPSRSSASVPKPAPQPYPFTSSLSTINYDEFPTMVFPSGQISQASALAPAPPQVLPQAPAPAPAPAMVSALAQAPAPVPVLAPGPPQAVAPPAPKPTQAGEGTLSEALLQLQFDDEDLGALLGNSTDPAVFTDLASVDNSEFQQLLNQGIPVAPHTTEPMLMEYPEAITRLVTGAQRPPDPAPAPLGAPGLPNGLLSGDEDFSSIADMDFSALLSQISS

B1: IκBα (endogenous), P25963 1-317 (natural protein)
chain: MFQAAERPQEWAMEGPRDGLKKERLLDDRHDSGLDSMKDEEYEQMVKELQEIRLEPQEVPRGSEPWKQQLTEDGDSFLHLAIIHEEKALTMEVIRQVKGDLAFLNFQNNLQQTPLHLAVITNQPEIAEALLGAGCDPELRDFRGNTPLHLACEQGCLASVGVLTQSCTTPHLHSILKATNYNGHTCLHLASIHGYLGIVELLVSLGADVNAQEPCNGRTALHLAVDLQNPDLVSLLLKCGADVNRVTYQGYSPYQLTWGRPSTRIQQQLGQLTLENLQMLPESEDEESYDTESEFTEFTEDELPYDDCVFGGQRLTL
  percent of IκBα bound to p65: 63%
